Measurements published in patent US20240092909A1 (IBIO, published 2024).
Substitutions are numbered along the chain they refer to.

B1: 1-C09-3 (antibody, V domains shown)
VH: QVQLQQPGAELVRPGTSVKLSCKASGYTFTSYWMHWVKERPGQGLEWIGVIDPSDSYTNYNQKFKDKATLTVDTSSSTAYMQLSSLTSEDSAVYYCARSPFDYWGQGTTLTVSS
VL: DIQMTQSQKFMSTSVGDRVSVTCKASQNVGTNVAWYQQKPGQSPKALIYSASYRYSGVPDRFIGSGSGTDFTLTIRNVQSEDLAEYFCQQHNSYPFTFGGGTKLEIK
notes: From the in vitro scFv library of immunised mice
B2: 1-F09-1 (antibody, V domains shown)
VH: B1 VH with L11V, R13M, T16A, E39Q, N59Q, D66G
VL: B1 VL with T5N, Q8H, V21I, N28D, G30S, N32A, Y53N, I106M
notes: as for B1
B3: 1-F12-1 (antibody, V domains shown)
VH: B1 VH with Q1E, E39Q, N59Q, D66G, L110V
VL: DIVMTQSHKFMSTSVGDRVSITCKASQDVSTAVAWYQQKPGQSPKALIYSASYRYSGVPDRFTGSGSGTDFTLTISNVQAEDLAVYYCHQHNTYPFTFGGGTKLEIK
notes: as for B1
B4: 1-C09-1 (antibody, V domains shown)
VH: B1 VH with A9T, L20M, E39Q, N59Q, D66G
VL: B1 VL with Q3V, V58I, I63T, R76S, E85D, Y86F, H91Y
notes: as for B1
B5: 1-H01-1 (antibody, V domains shown)
VH: B1 VH with R13K, T16A, L20M, E39Q, D55N, N59I, D66G
VL: B1 VL with I2V, Q3V, I63T
notes: From the in vitro scFv library of immunised mice; also called clone 1-H01-1
B6: 2-D11-1 (antibody, V domains shown)
VH: B1 VH with Q1E, S21A, T30N, S31T, K38N, E39Q, N59Q, D66G
VL: B1 VL with I2V, R76S
notes: as for B1
B7: 27A5 (antibody, V domains shown)
VH: QVTLKESGPGILQPSQTLSLTCSFSGFSLSTFGMGVGWIRQPSGKGLEWLAHIWWDADKYSTPALKSRLTISKDTSKNQVFLKIANVDTADTATYYCARIGRNYYFDYWGQGTTLTVSS
VL: DIVMTQSPSSLAVSVGEKVTLTCKSSQTLLDSTNQKNYLAWYQQIPGQSPKLLIYWASTRESGVPDRFTGSGSGTDFTLTISSVKAEDLTVYYCQQYYTYPLTFGAGTKLELK
notes: Antibody from a monoclonal hybridoma of immunised BALB/c mice
B8: 7 (antibody, V domains shown)
VH: EVQLLESGGGLVQPGGSLRLSCAASGFPFGNYLMNWVRQAPGKGLEWVSVISGGGVSTYYADSVKGRFTISRDNSKNTLYLQMNSLRAEDTAVYYCARGPSSWPAFDVWGQGTLVTVSS
VL: DIQMTQSPSSLSASVGDRVTITCRASETISNFLNWYQQKPGKAPKLLIYTTSSLQRGVPSRFSGSGSGTDFTLTISSLQPEDFATYYCQQSYSVPWTFGGGTKVEIK
notes: From phage panning of a naive antibody library; also called antibody 7; clone 7
B9: 43 (antibody, V domains shown)
VH: EVQLLESGGGLVQPGGSLRLSCAASGFTFSIHPMTWVRQAPGKGLEWVSLISTGGGSTYYADSVKGRFTISRDNSKNTLYLQMNSLRAEDTAVYYCASASVLGSGGYWSPGMDYWGQGTLVTVSS
VL: DIQMTQSPSSLSASVGDRVTITCRASQSIDRFLNWYQQKPGKAPKLLIYGASNLPSGVPSRFSGSGSGTDFTLTISSLQPEDFATYYCQQSFSIPWTFGGGTKVEIK
notes: From phage panning of a naive antibody library; also called antibody 43; clone 43
B10: E2-B5-7_201 (antibody, V domains shown)
VH: EVQLVQSGAEVKKPGATVKISCKASGYSLSDHYMHWVQQAPGKGLEWMGRIDPHSGATKYDPKFQGRVTITADTSTDTAYMELSSLRSEDTAVYYCARSGPVYHYGSSYVMDYWGQGTTVTVSS
VL: DIVMTQSPDSLAVSLGERATINCKSGQSVFYSSNNKNYLAWYQQKPGQPPKLLIYWASTRESGVPDRFSGSGSGTDFTLTISSLQAEDVAVYYCQQYLYSWTFGQGTKLEIK
B11: E2-B5-7_211 (antibody, V domains shown)
VH: B10 VH
VL: B10 VL with S58D
B12: D4-A7-7_201 (antibody, V domains shown)
VH: B10 VH with S28I, S30T, A57G, T58I
VL: B10 VL
notes: also called clone D4-A7-7_201
B13: E2-B5-6_201 (antibody, V domains shown)
VH: B10 VH with Y103H, H104Y
VL: B10 VL

These binders were tested against T1, Programmed cell death protein 1 (PD-1), human (human, UniProt Q15116 25-167, limits assumed) (assay: cell-based or functional assay).
T1 sequence (Q15116 25-167 limits assumed): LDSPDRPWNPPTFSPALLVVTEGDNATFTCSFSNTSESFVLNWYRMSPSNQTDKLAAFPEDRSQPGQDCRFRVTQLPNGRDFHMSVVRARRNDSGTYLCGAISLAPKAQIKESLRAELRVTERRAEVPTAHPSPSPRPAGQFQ

How did the “PD-1 agonism EC50, PathHunter Checkpoint Signaling Assay” value (“PD-1 agonism EC50” for short) turn out when B1 was run?
The value was 1.1 nM.

B2 was tested. Which “PD-1 agonism EC50” value did it give?
The value was 1.1 nM.

Which “PD-1 agonism EC50” value does the source give for B3 here?
Its value is 1.6 nM.

Which “PD-1 agonism EC50” value does the source give for B4 here?
Its value is 1.4 nM.

B5 was tested. Which “PD-1 agonism EC50” value did it give?
Its value is 0.9 nM.

How did the “PD-1 agonism EC50” value turn out when B6 was run?
Its value is 1.2 nM.

These binders were tested against T1, Programmed cell death protein 1 (PD-1), … (assay: SPR, PD-1 avidity (FIG. 2C); SPR avidity format, FIG. 2C).

For B7, which Kd is on record?
Its Kd is 0.005 nM.

These binders were tested against T1, Programmed cell death protein 1 (PD-1), … (assay: SPR, PD-1 binding (FIG. 2B); SPR affinity format, FIG. 2B).

For B7, which Kd is on record?
Its Kd is 55 nM.

What follows are binders tested against T1, Programmed cell death protein 1 (PD-1), … (assay: SPR affinity measurement, response in nm, four traces).

With B1 as the binder, how does the Kd read?
Its Kd is 84 nM.

Which Kd does the source give for B2 here?
Its Kd is 13 nM.

For B3, which Kd is on record?
Its Kd is 21 nM.

Which Kd does the source give for B4 here?
The Kd was 150 nM.

Which Kd does the source give for B5 here?
The Kd was 78 nM.

With B6 as the binder, how does the Kd read?
Its Kd is 15 nM.

Each binder was assayed against T1, Programmed cell death protein 1 (PD-1), … (assay: SPR avidity, column 'Avidity (nM)' of the drawn table).

Which Kd does the source give for B1 here?
Its Kd is 0.77 nM.

For B2, which Kd is on record?
Its Kd is 0.46 nM.

For B3, which Kd is on record?
The Kd was 0.98 nM.

With B4 as the binder, how does the Kd read?
The Kd was 3.7 nM.

For B5, which Kd is on record?
Its Kd is 0.44 nM.

How did the Kd turn out when B6 was run?
Its Kd is 0.96 nM.

The binders below were run against T1, Programmed cell death protein 1 (PD-1), … (assay: SPR affinity, column 'Affinity (nM)' of the drawn table).

How did the Kd turn out when B1 was run?
The Kd was 84 nM.

B2 was tested. Which Kd did it give?
The Kd was 13 nM.

Which Kd does the source give for B3 here?
Its Kd is 21 nM.

How did the Kd turn out when B4 was run?
Its Kd is 150 nM.

B5 was tested. Which Kd did it give?
The Kd was 78 nM.

B6 was tested. Which Kd did it give?
Its Kd is 15 nM.

These binders were tested against T1, Programmed cell death protein 1 (PD-1), … (assay: SPR on PD-1, sensorgrams at three concentrations with fit).

Which Kd does the source give for B8 here?
The Kd was 16 nM.

How did the Kd turn out when B9 was run?
Its Kd is 6.3 nM.

Each binder was assayed against T1, Programmed cell death protein 1 (PD-1), … (assay: SPR on PD-1, sensorgrams at five concentrations with fit).

With B10 as the binder, how does the Kd read?
Its Kd is 1.2 nM.

With B11 as the binder, how does the Kd read?
Its Kd is 0.695 nM.

How did the Kd turn out when B12 was run?
The Kd was 1.1 nM.

B13 was tested. Which Kd did it give?
The Kd was 0.71 nM.

These binders were tested against T1, Programmed cell death protein 1 (PD-1), … (assay: SPR avidity measurement (mimic cell surface PD-1 clusters), response in nm, three traces).

Which Kd does the source give for B1 here?
Its Kd is 0.77 nM.

B2 was tested. Which Kd did it give?
The Kd was 0.46 nM.

How did the Kd turn out when B3 was run?
The Kd was 0.98 nM.

How did the Kd turn out when B4 was run?
The Kd was 3.7 nM.

How did the Kd turn out when B5 was run?
Its Kd is 0.44 nM.

Which Kd does the source give for B6 here?
The Kd was 0.96 nM.
